Test [1] concerns the target Human erythropoietin (Epoetin β) (human) (UniProt P01588). Description: SPR; EPO immobilised by amine coupling on a ProteOn GLH chip (up to 3 000 RU); S100 or CaM as analyte (0.25–4 μM); 25 °C; 10 mM HEPES, 150 mM NaCl, 0.05% TWEEN 20, pH 7.4, 1 mM CaCl2; heterogeneous ligand model, values averaged over analyte concentrations (n = 5). In general terms: In SPR one partner is held on a chip, and binding of the other changes the refractive index at the surface.

Test [2] has as its target S100P (Homo sapiens) (UniProt P25815). Conditions: cited from earlier work.
Test [3] addresses S100P (monomeric) (Homo sapiens) (UniProt P25815). Conditions: cited from earlier work.

Human S100A2 protein, sequence (P29034 4-98): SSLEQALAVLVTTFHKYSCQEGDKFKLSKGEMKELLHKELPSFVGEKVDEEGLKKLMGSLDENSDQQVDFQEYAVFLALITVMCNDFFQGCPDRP
interleukin 11, sequence (P20809 22-199): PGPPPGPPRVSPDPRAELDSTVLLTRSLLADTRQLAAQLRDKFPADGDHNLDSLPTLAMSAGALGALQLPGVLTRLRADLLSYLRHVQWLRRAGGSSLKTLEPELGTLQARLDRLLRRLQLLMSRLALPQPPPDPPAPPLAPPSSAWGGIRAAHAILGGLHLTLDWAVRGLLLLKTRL
S100P (Homo sapiens), sequence (P25815 whole entry): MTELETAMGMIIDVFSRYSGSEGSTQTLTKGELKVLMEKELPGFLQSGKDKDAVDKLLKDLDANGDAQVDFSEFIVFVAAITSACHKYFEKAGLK
S100P (monomeric) (Homo sapiens), sequence (P25815 whole entry): as above
S100P, sequence (P25815 whole entry): as above

In test [1], “Human S100A2 protein (from UniProt P29034 4-98) (natural protein)” yielded a Kd1 (heterogeneous ligand model, ligand population L1) of 81 nM; a Kd2 (heterogeneous ligand model, ligand population L2) of 1.2 µM; a ka1 (heterogeneous ligand model, ligand population L1) of 2200 M⁻¹ s⁻¹; a ka2 (heterogeneous ligand model, ligand population L2) of 10000 M⁻¹ s⁻¹. In test [1], this substance yielded a kd1 (heterogeneous ligand model, ligand population L1) of 0.00018 s⁻¹ and a kd2 (heterogeneous ligand model, ligand population L2) of 0.012 s⁻¹.
By Kd is commonly meant the free concentration of one partner at which half of the binding sites on the other are occupied at equilibrium, for simple one-to-one binding. S100P (from UniProt P25815): the dissociation constant Kd in test [2] is 64 nM.
For interleukin 11 (from UniProt P20809), the Kd in test [3] was 1 nM.

These data come from paper PMC8773746.
